Experimental findings from PMC8757827, “A Novel Regulation of K-antigen Capsule Synthesis in Porphyromonas gingivalis Is Driven by the Response Regulator PG0720-Directed Antisense RNA” are described below.

Series [1] concerns the target T1, PG0720 response regulator (Porphyromonas gingivalis W83) (UniProt Q7MWB1).
T1 sequence: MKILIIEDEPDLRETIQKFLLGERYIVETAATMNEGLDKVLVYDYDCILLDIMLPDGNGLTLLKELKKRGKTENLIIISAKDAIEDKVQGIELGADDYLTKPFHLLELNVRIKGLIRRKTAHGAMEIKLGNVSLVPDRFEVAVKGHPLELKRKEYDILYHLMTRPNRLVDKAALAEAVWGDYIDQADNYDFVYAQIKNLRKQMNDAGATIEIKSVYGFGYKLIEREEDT
The series is described as follows: EMSA. Conditions: 10 mM HEPES pH 7.8, 50 mM KCl, 5 mM MgCl2, 1 mM DTT, 1 mM EDTA, 1 ug poly(dI-dC), 1 ug BSA, 10% glycerol, 20 mM acetyl phosphate, room temperature 30 min …. A general note: Mobility shift assays separate free from complexed probe on a gel.

The target in series [2] is T1, PG0720 response regulator (Porphyromonas gingivalis W83). The series is described as follows: DNase I footprinting. As to conditions: 10 mM HEPES pH 7.8, 50 mM KCl, 5 mM MgCl2, 1 mM DTT, 1 mM EDTA, 1 ug poly(dI-dC), 1 ug BSA, 10% glycerol, 20 mM acetyl phosphate, room temperature 30 min ….
The target in series [3] is T2, PG0720 response regulator (Porphyromonas gingivalis W83, UniProt Q7MWB1 1-229).
T2 sequence: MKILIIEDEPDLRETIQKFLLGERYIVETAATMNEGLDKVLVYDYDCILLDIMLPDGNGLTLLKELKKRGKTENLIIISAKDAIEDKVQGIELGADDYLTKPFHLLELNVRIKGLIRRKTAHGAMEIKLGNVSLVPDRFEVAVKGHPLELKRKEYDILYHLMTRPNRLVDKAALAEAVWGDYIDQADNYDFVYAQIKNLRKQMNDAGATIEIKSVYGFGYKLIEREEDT
Nature of the series: EMSA; 20 mM acetyl phosphate; 5 mM Mg2+; up to 140 pmol protein, 3 fmol DNA; 10 mM HEPES pH 7.8, 50 mM KCl, 5 mM MgCl2, 1 mM DTT, 1 mM EDTA, 1 ug poly(dI-dC), 1 ug BSA, 10% glycerol, 20 mM acetyl phosphate, room temperature 30 min, 10 ul (50 ul for footprinting). As to conditions: protein: recombinant; tags: none (N-His-SUMO removed by SUMO Express protease); chain copies: 2; label: 5' biotin; blunt.

Regarding “ACACATCACAACAATATCTTCAATAACATACCCCACATCCGCCCGTCTTCACTACGATCTAAATAAAATTTCCCCAATGACAAAACCGCCTTATTTTAAAAATTACACATAACAGAAAAAAGAGTGATTCTCATTATACTTTCTTTGACAATCAAATCCTTTCAACGATGATTTTTGAGACCCTAATAGAGCGCAAAGGTAATTAATTATCGTCTATATTCCTAAATCCCAGTGGAATGATTCAGGAC (double strand) [PG0106 upstream promoter 248-bp]”, the binding result in series [1] is “no binding”. Still for that read-out and setting: with “TGTCAGGGCGATCGCGTTTGAAAATTTTTAGTCTCTTTCCTCTATGATTTGAATCTCTGACATATGG (double strand) [asSuGR promoter 67-bp]” the entry was “binds”. As for “CAAACAAGTGCGAATCCATATGTCAGAGATTCAAATCATAGAGGAAAGAGACTAAAAATTTTCAAACGCGATCGCCCTGACAGGCTACCCCCGGGGT (double strand) [asSuGR promoter 97-bp footprint probe]”, the binding entry in series [2] is “binds”. Regarding “TGTCAGGGCGATCGCGTTTGAAAATTTTTAGTCTCTTTCCTCTATGATTTGAATCTCTGACATATGGATTCGCACTTGTTTGATAATTGAATGTAGCAATCATGAGATCTATAAGTGTGTAACGGTTCAAATGCGATTGTCCTGAATCATTCCA (double strand) [asSuGR promoter 154-bp]”, the binding entry in series [1] is “binds”.

B1: 77-bp region (77bpIR2) (dsDNA)
DNA 1: ATTCGCACTTGTTTGATAATTGAATGTAGCAATCATGAGATCTATAAGTGTGTAACGGTTCAAATGCGATTGTCCTG
DNA 2: CAGGACAATCGCATTTGAACCGTTACACACTTATAGATCTCATGATTGCTACATTCAATTATCAAACAAGTGCGAAT
With B1, the binding result in series [3] is on record as “no binding”.
